# Where “and” joins values, the source holds several entries; their conditions need not be identical. Equal values may be shown once.
# T1: cavin1-GFP (cell-free) (UniProt Q6NZI2 1-390)
# T1 construct: cavin1 / polymerase transcript release factor (PTRF); ORF in a Gateway DNA template for cell-free expression; also called PTRF; source: Leishmania tarentolae cell-free system (LTE), in vitro translated, not purified; not shown: eGFP, N-terminal, kept
# T1 sequence (looked up): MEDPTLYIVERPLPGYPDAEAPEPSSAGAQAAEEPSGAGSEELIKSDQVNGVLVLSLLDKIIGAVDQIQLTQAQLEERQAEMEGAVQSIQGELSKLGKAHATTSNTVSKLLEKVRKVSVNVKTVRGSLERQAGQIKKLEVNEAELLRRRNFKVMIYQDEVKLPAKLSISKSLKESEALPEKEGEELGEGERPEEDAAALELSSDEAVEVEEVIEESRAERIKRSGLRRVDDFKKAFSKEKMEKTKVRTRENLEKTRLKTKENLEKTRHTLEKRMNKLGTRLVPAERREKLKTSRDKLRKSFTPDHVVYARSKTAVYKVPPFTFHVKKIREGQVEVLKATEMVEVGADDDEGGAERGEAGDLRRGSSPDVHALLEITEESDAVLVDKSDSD
# T2: CAV1 untagged (UniProt Q03135 1-178)
# T2 construct: caveolin-1 (CAV1), untagged; construct cloned as described in Hill et al. (2008); also called caveolin-1; source: MCF-7 cells, transfected, in post nuclear supernatant
# T2 sequence (looked up): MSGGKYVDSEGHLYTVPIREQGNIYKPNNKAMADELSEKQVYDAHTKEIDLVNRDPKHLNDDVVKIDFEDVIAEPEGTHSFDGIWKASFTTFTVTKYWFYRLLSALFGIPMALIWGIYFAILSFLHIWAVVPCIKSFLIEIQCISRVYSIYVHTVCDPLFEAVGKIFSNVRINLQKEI
# T3: cavin3-GFP (UniProt Q969G5 1-261)
# T3 construct: construct cloned as described in Hill et al. (2008); The only hint on species is the keyword 'human'; the cDNA may be of mouse (surmise); also called SRBC; source: MCF-7, MDCK or HeLa cells, transfected (Lipofectamine 2000), in supernatant of mechanically lysed cells
# T3 sequence (looked up): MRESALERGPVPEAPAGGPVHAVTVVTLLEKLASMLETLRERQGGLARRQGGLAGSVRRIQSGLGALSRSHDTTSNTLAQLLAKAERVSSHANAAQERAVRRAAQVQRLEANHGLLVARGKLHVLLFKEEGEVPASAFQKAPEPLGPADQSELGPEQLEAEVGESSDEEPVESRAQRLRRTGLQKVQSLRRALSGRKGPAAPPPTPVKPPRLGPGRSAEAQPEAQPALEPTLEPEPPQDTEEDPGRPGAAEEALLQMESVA
# T4: CAV1-GFP (UniProt Q03135 1-178)
# T4 construct: caveolin-1 (CAV1); construct cloned as described in Hill et al. (2008); membrane protein, seen on caveolae in the cell extract; also called caveolin-1; Caveolin-1; source: MCF-7 cells, transfected, in post nuclear supernatant
# T4 sequence (looked up): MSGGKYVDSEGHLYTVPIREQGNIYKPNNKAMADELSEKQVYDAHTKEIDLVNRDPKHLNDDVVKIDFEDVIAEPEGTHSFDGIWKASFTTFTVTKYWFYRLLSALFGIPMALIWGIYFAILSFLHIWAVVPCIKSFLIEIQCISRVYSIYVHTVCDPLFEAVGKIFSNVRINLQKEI
# B1: cavin3-Cherry-myc (cell-free) (natural protein, UniProt Q969G5 1-261, looked up)
# chain: MRESALERGPVPEAPAGGPVHAVTVVTLLEKLASMLETLRERQGGLARRQGGLAGSVRRIQSGLGALSRSHDTTSNTLAQLLAKAERVSSHANAAQERAVRRAAQVQRLEANHGLLVARGKLHVLLFKEEGEVPASAFQKAPEPLGPADQSELGPEQLEAEVGESSDEEPVESRAQRLRRTGLQKVQSLRRALSGRKGPAAPPPTPVKPPRLGPGRSAEAQPEAQPALEPTLEPEPPQDTEEDPGRPGAAEEALLQMESVA
# notes: cavin3 / SRBC; ORF in a Gateway DNA template for cell-free expression; also called SRBC; cavin3-myc; source: Leishmania tarentolae cell-free system (LTE), in vitro translated, not purified; not shown: mCherry, C-terminal, kept; Myc, C-terminal, kept
# B2: cavin3-Cherry (natural protein, UniProt Q969G5 1-261, looked up)
# chain: MRESALERGPVPEAPAGGPVHAVTVVTLLEKLASMLETLRERQGGLARRQGGLAGSVRRIQSGLGALSRSHDTTSNTLAQLLAKAERVSSHANAAQERAVRRAAQVQRLEANHGLLVARGKLHVLLFKEEGEVPASAFQKAPEPLGPADQSELGPEQLEAEVGESSDEEPVESRAQRLRRTGLQKVQSLRRALSGRKGPAAPPPTPVKPPRLGPGRSAEAQPEAQPALEPTLEPEPPQDTEEDPGRPGAAEEALLQMESVA
# notes: construct cloned as described in Hill et al. (2008); The only hint on species is the keyword 'human'; the cDNA may be of mouse (surmise); also called SRBC; C3-C; source: MCF-7 or MDCK cells, transfected (Lipofectamine 2000), in supernatant of mechanically lysed cells
# B3: cavin1-GFP (natural protein, UniProt Q6NZI2 1-390, looked up)
# chain: MEDPTLYIVERPLPGYPDAEAPEPSSAGAQAAEEPSGAGSEELIKSDQVNGVLVLSLLDKIIGAVDQIQLTQAQLEERQAEMEGAVQSIQGELSKLGKAHATTSNTVSKLLEKVRKVSVNVKTVRGSLERQAGQIKKLEVNEAELLRRRNFKVMIYQDEVKLPAKLSISKSLKESEALPEKEGEELGEGERPEEDAAALELSSDEAVEVEEVIEESRAERIKRSGLRRVDDFKKAFSKEKMEKTKVRTRENLEKTRLKTKENLEKTRHTLEKRMNKLGTRLVPAERREKLKTSRDKLRKSFTPDHVVYARSKTAVYKVPPFTFHVKKIREGQVEVLKATEMVEVGADDDEGGAERGEAGDLRRGSSPDVHALLEITEESDAVLVDKSDSD
# notes: cavin1 / polymerase transcript release factor (PTRF); construct cloned as described in Hill et al. (2008); The only hint on species is the keyword 'human'; the cDNA may be of mouse (surmise); also called polymerase transcript release factor; PTRF; source: MCF-7 or MDCK cells, transfected (Lipofectamine 2000), in supernatant of mechanically lysed cells
# B4: cavin1-Cherry (natural protein, UniProt Q6NZI2 1-390, looked up)
# chain: MEDPTLYIVERPLPGYPDAEAPEPSSAGAQAAEEPSGAGSEELIKSDQVNGVLVLSLLDKIIGAVDQIQLTQAQLEERQAEMEGAVQSIQGELSKLGKAHATTSNTVSKLLEKVRKVSVNVKTVRGSLERQAGQIKKLEVNEAELLRRRNFKVMIYQDEVKLPAKLSISKSLKESEALPEKEGEELGEGERPEEDAAALELSSDEAVEVEEVIEESRAERIKRSGLRRVDDFKKAFSKEKMEKTKVRTRENLEKTRLKTKENLEKTRHTLEKRMNKLGTRLVPAERREKLKTSRDKLRKSFTPDHVVYARSKTAVYKVPPFTFHVKKIREGQVEVLKATEMVEVGADDDEGGAERGEAGDLRRGSSPDVHALLEITEESDAVLVDKSDSD
# notes: cavin1 / polymerase transcript release factor (PTRF); construct cloned as described in Hill et al. (2008); The only hint on species is the keyword 'human'; the cDNA may be of mouse (surmise); also called PTRF; source: MCF-7 or MDCK cells, transfected (Lipofectamine 2000), in supernatant of mechanically lysed cells
# B5: cavin2-GFP (natural protein, UniProt O95810 1-425, looked up)
# chain: MGEDAAQAEKFQHPGSDMRQEKPSSPSPMPSSTPSPSLNLGNTEEAIRDNSQVNAVTVLTLLDKLVNMLDAVQENQHKMEQRQISLEGSVKGIQNDLTKLSKYQASTSNTVSKLLEKSRKVSAHTRAVKERMDRQCAQVKRLENNHAQLLRRNHFKVLIFQEENEIPASVFVKQPVSGAVEGKEELPDENKSLEETLHTVDLSSDDDLPHDEEALEDSAEEKVEESRAEKIKRSSLKKVDSLKKAFSRQNIEKKMNKLGTKIVSVERREKIKKSLTSNHQKISSGKSSPFKVSPLTFGRKKVREGESHAENETKSEDLPSSEQMPNDQEEESFAEGHSEASLASALVEGEIAEEAAEKATSRGSNSGMDSNIDLTIVEDEEEESVALEQAQKVRYEGSYALTSEEAERSDGDPVQPAVLQVHQTS
# notes: cavin2 / SDPR (serum deprivation response protein); construct cloned as described in Hill et al. (2008); The only hint on species is the keyword 'human'; the cDNA may be of mouse (surmise); also called SDPR; serum deprivation response protein; source: MCF-7 or MDCK cells, transfected (Lipofectamine 2000), in supernatant of mechanically lysed cells
# Columns and labels:
# cavin1-GFP (cell-free) = molecular target: T1, cavin1-GFP (cell-free); assay: single-molecule two-colour fluorescence coincidence; co-expression in the Leishmania tarentolae cell-free system at DNA ratios from 100% GFP to 100% Cherry; >1000 bursts for each ratio; conditions: partners not purified
# [1] = molecular target: the molecule itself; assay: single-molecule brightness analysis; burst brightness of fluorescent cavins in supernatant of MCF-7 cells without CAV1, calibrated on monomeric GFP (maximum 100 photons)
# [2] = molecular target: the molecule itself; assay: single-molecule brightness analysis; burst brightness in supernatant of MCF-7 cells transfected with CAV1-GFP, or with cavin1-GFP and untagged CAV1; calibrated on a single GFP
# CAV1 untagged = molecular target: T2, CAV1 untagged; assay: as above; conditions: partners not purified
# cavin2-GFP = molecular target: B5; assay: single-molecule two-colour fluorescence coincidence; MDCK cells (endogenous cavin1 and CAV1) co-transfected; cytoplasmic fraction after hypo-osmotic treatment (DMEM 1:10 in water, 20 min, 37°C); conditions: partners not purified
# cavin3-GFP = molecular target: T3, cavin3-GFP; assay: as above; conditions: partners not purified
# cavin1-GFP = molecular target: B3; assay: single-molecule brightness analysis; burst brightness of oligomers in the cytoplasmic fraction of MDCK cells after hypo-osmotic treatment (20 min); conditions: partners not purified
# CAV1-GFP = molecular target: T4, CAV1-GFP; assay: single-molecule two-colour fluorescence coincidence; MCF-7 cells expressing CAV1-GFP and cavin1-Cherry; caveolae in the post nuclear supernatant; conditions: partners not purified
binder,measurement,setting,value
B1,stoichiometry N,cavin1-GFP (cell-free),3 cavin1 per cavin3
B2,stoichiometry N,[1],~50 monomers
B3,stoichiometry N,[1],50 ± 5 proteins per complex
same,stoichiometry N,[2],40 to 50 cavin1 per caveola
same,brightness of CAV1-GFP over cavin1-GFP,CAV1 untagged,3.5 fold
B4,stoichiometry N,cavin2-GFP,2 cavin1 per cavin2
same,stoichiometry N,cavin3-GFP,~2 cavin1 per cavin3
same,stoichiometry N,cavin1-GFP,9 cavin1 proteins per oligomer and 8 cavin1 proteins per oligomer to 10 cavin1 proteins per oligomer (2×)
same,stoichiometry N,CAV1-GFP,3 CAV1 per cavin1 and 4 CAV1 per cavin1
B5,stoichiometry N,[1],~50 monomers
